Assays:
Details in all cases: 20 nM; 72 h
MCF10A [1] = assay: percent viability (nuclei count relative to siNT); higher = more viable cells
Description: (§1)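 After 72 h, cells were fixed and stained with Hoechst and anti-fibrillarin, and nucleoli per nucleus were counted with CellProfiler. Values are plate-adjusted percent effect for the one-nucleolus and 5+ nucleoli phenotypes, normalised to siNT (0%) and to the positive controls siNOL11 or siKIF11 (100%), as the mean of biological triplicates. Percent viability is the nuclei count relative to siNT.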

MCF10A [2] = assay: one-nucleolus phenotype percent effect (relative to siNT 0% and siNOL11 100%); higher = more cells with one nucleolus (ribosome biogenesis inhibition)
Description: as §1

MCF10A [3] = assay: 5+ nucleoli phenotype percent effect (relative to siNT 0% and siKIF11 100%); higher = more cells with five or more nucleoli
Description: as §1

Row | Sequence | percent viability (MCF10A [1]) [%] | one-nucleolus phenotype percent effect (MCF10A [2]) [%] | 5+ nucleoli phenotype percent effect (MCF10A [3]) [%]
1 | GCGGAGAGAGAAUGGGGAGC [hsa-miR-5739] | 110 | -16.4 | 53.5
2 | UUGGGGUGGUCGGCCCUGGAG [hsa-miR-6737-5p] | 7.13 | 48.7 | -19.8
3 | UGCUUAACCUUGCCCUCGAAA [hsa-miR-4804-3p] | 49.2 | 20.5 | -30.7
4 | CCCCAGGGCGACGCGGCGGG [hsa-miR-1915-3p] | 87.8 | -13.1 | 42.5
5 | GAGACAGGUUCAUGCUGCUA [hsa-miR-4524b-3p] | 25.8 | 37.3 | -32.4
6 | UGUGUGUGUAGAGGAAGAAGGGA [hsa-miR-6867-5p] | 13.1 | 64.8 | -22.4
7 | UUCUAGAUGAGAGAUAUAUAUA [hsa-miR-4777-5p] | 34.7 | 29.8 | -25.9
8 | AGCAAGGCGGCAUCUCUCUGAU [hsa-miR-4708-3p] | 43.7 | 16.1 | -21.8
9 | UUUAGAGACGGGGUCUUGCUCU [hsa-miR-1303] | 71.3 | -10.2 | 17.6
10 | UUCACCACCUUCUCCACCCAGC [hsa-miR-197-3p] | 28.8 | 10.8 | -10
11 | UCCUUCAUUCCACCGGAGUCUG [hsa-miR-205-5p] | 67.4 | 21 | -17.6
12 | CAAAACCGCGAUUACUCUUGCA [hsa-miR-548ay-3p] | 25.8 | 52 | -63.9
13 | CGAGGGGUAGAAGAGCACAGGGG [hsa-miR-6738-5p] | 75.7 | -8.33 | 26.9
14 | CUCAAGUAGUCUGACCAGGGGA [hsa-miR-4465] | 67 | -5.88 | 21.6
15 | GGGCUGGGGCGCGGGGAGGU [hsa-miR-5787] | 150 | -30.8 | 60.6
16 | UUGCUCACUGUUCUUCCCUAG [hsa-miR-1178-3p] | 50.3 | 0.794 | -31.4
17 | AUCAACAGACAUUAAUUGGGCGC [hsa-miR-421] | 61.3 | 23.1 | -13.6
18 | UGGUUUACCGUCCCACAUACAU [hsa-miR-299-5p] | 27.9 | 24.1 | -19.4
19 | CAGGGCAGGAAGAAGUGGACAA [hsa-miR-4436b-3p] | 20.5 | 31.7 | -7.65
20 | UACGGUGAGCCUGUCAUUAUUC [hsa-miR-433-5p] | 32.9 | 4.21 | -4.1

Row | Sequence | percent viability (MCF10A [1]) [%] | one-nucleolus phenotype percent effect (MCF10A [2]) [%] | 5+ nucleoli phenotype percent effect (MCF10A [3]) [%]
21 | UCCUGUACUGAGCUGCCCCGAG [hsa-miR-486-5p] | 41.3 | 4.53 | 1.79
22 | GAAGAACUGUUGCAUUUGCCCU [hsa-miR-4511] | 121 | -30.8 | 26.2
23 | CGUGGAUAUUCCUUCUAUGUUU [hsa-miR-376b-5p] | 22 | 9.58 | -14
24 | GCAGGACAGGCAGAAGUGGAU [hsa-miR-4436a] | 105 | -24.9 | 32.1
25 | UGUCUAUACUCUGUCACUUUAC [hsa-miR-4796-5p] | 34.7 | 45.9 | -19.7
26 | AUUGCCUCUGUUCUAACACAAG [hsa-miR-3152-5p] | 129 | -11.4 | 38.3
27 | UCGGGCGCAAGAGCACUGCAGU [hsa-miR-6499-5p] | 43.5 | 0.719 | -9.6
28 | GAGAAAUGCUGGACUAAUCUGC [hsa-miR-5680] | 93.7 | -20.6 | 27.3
29 | CAAAAACCGGCAAUUACUUUUG [hsa-miR-548ac] | 72.6 | -15.1 | 8.34
30 | GGUAGUGAGUUAUCAGCUAC [hsa-miR-6073] | 71 | 2.63 | 18.3
31 | UGGGGCGGGGCAGGUCCCUGC [hsa-miR-6816-5p] | 71.1 | -19 | 30.8
32 | GUUGGGACAAGAGGACGGUCUU [hsa-miR-3122] | 87.3 | -20.5 | 22.1
33 | CUUUGCUUCCUGCUCCCCUAG [hsa-miR-6885-3p] | 41.6 | -5.84 | -17.3
34 | GAAGAAUAGGAGGGACUUUGU [hsa-miR-6507-5p] | 79.1 | -12.9 | 35.1
35 | AGAAGAUUGCAGAGUAAGUUCC [hsa-miR-4699-5p] | 48.2 | 31.8 | -32.9
36 | CUCCCCGGCCUCUGCCCCCAG [hsa-miR-6763-3p] | 96.4 | -28.1 | 39.1
37 | AAUGCACCUGGGCAAGGAUUCA [hsa-miR-502-3p] | 38.5 | 0.707 | -10.4
38 | CCAUGAAGCAGUGGGUAGGAGGAC [hsa-miR-8060] | 43.2 | 6.65 | 14.9
39 | UUGCUCUGAGCUCCGAGAAAGC [hsa-miR-5691] | 48.2 | -10.3 | -16.4
40 | CAACCUCGAGGAUCUCCCCAGC [hsa-miR-3150b-5p] | 48.1 | -5.6 | 20.8

Row | Sequence | percent viability (MCF10A [1]) [%] | one-nucleolus phenotype percent effect (MCF10A [2]) [%] | 5+ nucleoli phenotype percent effect (MCF10A [3]) [%]
41 | AGCAGCAUUGUACAGGGCUAUCA [hsa-miR-107] | 22.7 | 29.9 | -26.1
42 | ACCCUAUCAAUAUUGUCUCUGC [hsa-miR-454-5p] | 81.2 | -29.8 | 45.6
43 | UACCCAGUCUCCGGUGCAGCC [hsa-miR-3130-5p] | 27.4 | 44 | -32.6
44 | GGGCGCCUGUGAUCCCAAC [hsa-miR-566] | 81.2 | -9.02 | 39.3
45 | AAUCUGAGAAGGCGCACAAGGU [hsa-miR-3200-5p] | 32.7 | 2.91 | -28.4
46 | AGUAGAGAGGAAAAGUUAGGGUC [hsa-miR-6832-5p] | 64.7 | -10.8 | 20.4
47 | ACAGAGGACAGUGGAGUGUGAGC [hsa-miR-6847-5p] | 51.1 | -1.08 | -1.34
48 | AAAGAUGGACAAUUGGCUAAAU [hsa-miR-4662b] | 38.3 | 49.4 | -25.7
49 | UGCCCAUGCCAUACUUUUGCCUCA [hsa-miR-4641] | 78.6 | 5.53 | 7.52
50 | GACACUAGGCAUGUGAGUGAUU [hsa-miR-4704-5p] | 65 | -20.2 | 0.429
51 | GGCUUGCAUGGGGGACUGG [hsa-miR-4327] | 40.2 | 12.4 | 7.45
52 | AUGUGCCUGAGGGAGUAAGACA [hsa-miR-550b-2-5p] | 49.7 | 9.16 | -13.6
53 | AUGUCCCACCCCCACUCCUGU [hsa-miR-4433b-5p] | 28.3 | 55.5 | -37.3
54 | UAAAGAACUCUUAAAACCCAAU [hsa-miR-3133] | 51.5 | -22.2 | 48.7
55 | CCCCUGGGGCUGGGCAGGCGGA [hsa-miR-6791-5p] | 107 | -13.7 | 45.9
56 | UAUGGUACUCCUUAAGCUAAC [hsa-miR-5579-5p] | 86.3 | -26.5 | 101
57 | UAGGCCUUUAGAUCACUUAAA [hsa-miR-1245b-5p] | 21.5 | 19.2 | -5.02
58 | GGCAGGAGGGCUGUGCCAGGUUG [hsa-miR-4722-5p] | 60.5 | -6.08 | 13.5
59 | ACCUGGCAUACAAUGUAGAUUU [hsa-miR-221-5p] | 36 | 62.6 | -26.8

Source: the supplement of paper PMC10899765
